Data reported in article PMC6123713, “Adenylate kinase potentiates the capsular polysaccharide by modulating Cps2D in Streptococcus pneumoniae D39” (Experimental & Molecular Medicine, 2018).
Where a chain is given by its changes, count along the chain named.

How the values were obtained:
His6-Cps2D wild-type = molecular target: T1, His6-Cps2D wild-type (Streptococcus pneumoniae type 2 (D39), UniProt Q9ZII6 1-226); experiment: BLI; Blitz system; His6-Cps2D protein (1 μM) immobilised on Ni-NTA sensors; GST-SpAdK 2.5-50 μM; buffer D (250 mM NaCl, 50 mM Tris-HCl, pH 7.5, 1 mM DTT) with 5 mM Mg-ATP; GST and sensor background subtracted; steady-state analysis; apparent Kd; conditions: both partners purified
T1 construct: autophosphorylating tyrosine kinase Cps2D of Streptococcus pneumoniae type 2 (D39), approximately 226 amino acids; also called Cps2D WT; pCPS03; source: recombinant, purified to homogeneity; plasmid pCPS03 (E. coli plasmid pHis-parallel 2); cloning and purification in the Supplementary Information
T1 sequence: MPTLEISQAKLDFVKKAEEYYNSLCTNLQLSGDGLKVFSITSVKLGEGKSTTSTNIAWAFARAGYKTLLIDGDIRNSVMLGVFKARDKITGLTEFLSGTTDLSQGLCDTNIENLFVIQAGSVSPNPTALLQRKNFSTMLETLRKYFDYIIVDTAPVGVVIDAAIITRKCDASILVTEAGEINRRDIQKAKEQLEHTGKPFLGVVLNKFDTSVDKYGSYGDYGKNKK

[1] = molecular target: T2, His6-Cps2D 3Y3E (Y215E/Y218E/Y221E) (Streptococcus pneumoniae type 2 (D39), UniProt Q9ZII6 1-226, Y215E | Y218E | Y221E); experiment: as above; conditions: both partners purified
T2 construct: tyrosine kinase Cps2D of Streptococcus pneumoniae type 2 (D39), triple phosphomimetic mutant of the C-terminal tyrosine cluster; also called pCPS04; source: recombinant, purified to homogeneity; plasmid pCPS04 (E. coli plasmid pHis-parallel 2); cloning and purification in the Supplementary Information
T2 sequence: T1 sequence with Y215E, Y218E, Y221E

B1: GST-SpAdK (Streptococcus pneumoniae adenylate kinase, GST-tagged) (enzyme)
chain: MNLLIMGLPGAGKGTQAAKIVEQFHVAHISTGDMFRAAMANQTEMGVLAKSYIDKGELVPDEVTNGIVKERLSQDDIKETGFLLDGYPRTIEQAHALDKTLAELGIELEGIINIEVNPDSLLERLSGRIIHRVTGETFHKVFNPPVDYKEEDYYQREDDKPETVKRRLDVNIAQGEPIIAHYRAKGLVHDIEGNQDINDVFSDIEKVLTNLK
notes: adenylate kinase of Streptococcus pneumoniae (SpAdK); also called glutathione S-transferase (GST)-SpAdK; pGST-ADK; source: recombinant, purified; plasmid pGST-ADK (E. coli plasmid pGST-parallel 2); cloning and purification in the Supplementary Information
With B1 the Kd (His6-Cps2D wild-type) was 31 ± 5 µM and the Kd [1] was 40 ± 17 µM.
